From PMC4585211

Experiments:
[1] = biological target: LHCGR-Q303P/E305P (double proline mutant of the human lutropin/choriogonadotropin receptor), GFP fusion (human) (UniProt P22888)
[2] = biological target: LHCGR-delExon10 (human lutropin/choriogonadotropin receptor lacking the exon10-encoded segment), GFP fusion (human) (UniProt P22888)

EC50 of cAMP accumulation (radioimmunoassay) in transiently transfected HEK 293 cells, stimulation with hCG for 1 h at 37°C; significantly right-shifted against wild type (0.15 IU/ml) [1] [IU/ml] | EC50 of cAMP accumulation (radioimmunoassay) in transiently transfected HEK 293 cells, stimulation with hCG for 1 h at 37°C; wild-type-like (wild type 0.15 IU/ml) [2] [IU/ml] | EC50 of cAMP accumulation (radioimmunoassay) in transiently transfected HEK 293 cells, stimulation with hLH for 1 h at 37°C; not significantly different from wild type (0.13 IU/ml) [1] [IU/ml] | EC50 of cAMP accumulation (radioimmunoassay) in transiently transfected HEK 293 cells, stimulation with hLH for 1 h at 37°C; significantly right-shifted against wild type (0.13 IU/ml) [2] [IU/ml] | Substance
0.85 | 0.18 | – | – | human choriogonadotropin (hCG) (from UniProt P01215 25-116; P0DN86 21-165) (ligand)
– | – | 0.24 | 0.51 | human lutropin (hLH) (from UniProt P01215 25-116; P01229 21-141) (ligand)
